Results reported in patent publication US12508311B2, “Fusion protein, and preparation method and use thereof” (SUN YAT-SEN UNIVERSITY, priority 2021, dated 2025).

Tests used:
[1] = target: T1, KRas protein in HT29 (KRas wt) cells (Homo sapiens, UniProt P01116); test: Co-immunoprecipitation (Co-IP) in HT29 cells; format: cell-based; conditions: 20 μg/mL, 24 hours, Lys05 10 μM
T1 construct: host or cells: HT29
Protocol: The co-immunoprecipitation experiment (Co-IP) was an important means to detect the intracellular interaction of the protein. […] The experiment was carried out in the presence of the lysosome inhibitor Lys05 with a final concentration of 10 μM. • (2) The cells were cultured and treated at 37° C. for 24 hours, and then cleaned twice with PBS, and 1 mL of 0.25% pancreatin was added into each culture dish to digest the cells and make the cells fall off from the culture dish wall. Then, 2 mL of complete culture solution was added into each culture dish to stop the digestion , centrifuged at the room temperature and 300 g for 3 minutes, to collect the cells. […] The colorectal cancer cells were lysed on ice, turned upside down for several times every 5 minutes gently without vortex, and centrifuged at 4° C. and 12,000 rpm for 30 minutes after being lysed for 30 minutes. • (4) The supernatant was transferred to a new EP tube, the protein concentration was measured by the BCA method, and then 1 mg of protein was taken from each group for a Co-IP reaction. […] Meanwhile, 30 μL of protein sample was also taken from the Input group, vortically vibrated for 1 minute, boiled in boiled water for 10 minutes, and centrifuged, and the supernatant was collected in a new 1.5 mL EP tube. • (8) The protein concentration was measured by the BCA method. […]

[2] = Toxic and side effects in mice (body weight, HE histopathology); format: in vivo; conditions: 25 and 50 mg/kg intraperitoneal, seven times (3 weeks)
Protocol: • (1) Balb/c nude mice, female, 4 weeks to 5 weeks old, purchased from Guangdong Laboratory Animal Center and raised in Laboratory Animal Center of Sun Yat-sen University, were used in this experiment. […] The mice were administered once every three days at a fixed time. Meanwhile, changes in body state, mental state and weight of the mice were observed and recorded. • (3) After continuous administration for seven times (3 weeks), the mice were euthanized (killed by cervical dislocation). […] All the animal experiments were carried out within relevant regulations of animal ethics of Sun Yat-sen University.

[3] = test system: signal pathway KRas/Raf/ERK/c-myc in KRas mutant-type cells HCT116; test: Western blot of EGFR downstream signal pathway, HCT116; format: cell-based, human; conditions: 10 and 20 μg/mL, 24 hours, compared with control TKDm
Protocol: (§1) • (1) The colorectal cancer cells HCT116 (KRas G13D) and HT29 (KRas wt) were respectively spread in six-well plates, 500,000 cells per well. […] Then, the digestion was stopped with 1 mL of complete culture solution per well, the cell suspension was collected into a 1.5 mL EP tube, and centrifuged at the room temperature and 300 g for 3 minutes to collect cells. The cells were resuspended with 1 mL of PBS, and repeatedly centrifuged once. • (3) The supernatant was removed, 100 μL of lysate was added in each group (item number: P0013G; purchased from Beyotime Biotechnology Company). The cells were lysed on ice, vortically vibrated every 5 minutes, and centrifuged at 4° C. and 12,000 rpm for 30 minutes after being lysed for 30 minutes, and the supernatant was collected in a new 1.5 mL EP tube. • (4) The protein concentration was measured by the BCA method, and 20 μg of protein was taken from each group for SDS denaturation gel electrophoresis, transferred and blocked with 5% skim milk for 1 hour.

[4] = test system: signal pathway KRas/Raf/ERK/c-myc in KRas wild-type cells HT29; test: Western blot of EGFR downstream signal pathway, HT29; format: cell-based, human; conditions: 10 and 20 μg/mL, 24 hours, compared with control TKDm
Protocol: as §1

B1: TKD: fusion protein: tumour-cell-penetrating peptide BR2, anti-KRas nanobody VHH and lysosome recognition peptide CTM; SEQ ID NO.4 (protein)
chain: RAGLQFPVGRLLRRLLRDVQLQESGGGLVQAGGSLRLSCVASGRTFSTYPTGWFRQAPGKEREFVARINLSGGITNYADSVKGRFTISRDNAKNTVYLQMNSLKPEDTAVYYCGGGSTTWAGGIPTNFDYWGQGTQVTVSSGRKFERQKILDQRFFE
binding to KRas protein in cells (Co-IP) [1]: could pass through the cell membrane and bind to the wild-type and mutant-type KRas proteins in cells without discrimination
changes in body weight ([2]; once every three days, vs PBS): did not show obvious changes in body weight
pathological analysis of lung, liver, spleen and kidney (HE) [2]: did not damage vital organs including lung, liver, spleen and kidney of the mice
inhibition of activation of EGFR downstream signal pathway KRas/Raf/ERK/c-myc (western blot) [3]: could significantly inhibit the activation of the EGFR downstream signal pathway KRas/Raf/ERK/c-myc
inhibition of activation of EGFR downstream signal pathway KRas/Raf/ERK/c-myc (western blot) [4]: could significantly inhibit the activation of the EGFR downstream signal pathway KRas/Raf/ERK/c-myc
